US20160108110A1 (Novartis, published 2016)

What was measured:
[1] = biological target: T1, Human ANGPTL4(26-406)-FLAG-His6-Avi (human, UniProt Q9BY76 24-406, biotin on the C-terminal Avi tag in the biotinylated preparations (immobilised form in SET, ELISA and Octet)); assay: SET assay (solution equilibrium titration, MSD), IgG
T1 construct: also called full-length human ANGPTL4; hANGPTL4
T1 sequence: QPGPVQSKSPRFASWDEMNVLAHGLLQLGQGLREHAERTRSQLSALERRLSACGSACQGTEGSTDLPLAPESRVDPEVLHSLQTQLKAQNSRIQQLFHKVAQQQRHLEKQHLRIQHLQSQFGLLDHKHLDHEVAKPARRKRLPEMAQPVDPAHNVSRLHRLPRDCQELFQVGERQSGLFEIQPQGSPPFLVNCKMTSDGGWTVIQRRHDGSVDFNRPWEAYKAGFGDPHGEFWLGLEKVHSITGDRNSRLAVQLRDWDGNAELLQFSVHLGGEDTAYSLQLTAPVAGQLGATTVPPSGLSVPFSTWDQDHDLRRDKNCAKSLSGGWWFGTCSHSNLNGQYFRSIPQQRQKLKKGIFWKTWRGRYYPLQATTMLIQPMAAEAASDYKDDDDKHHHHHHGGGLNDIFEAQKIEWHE
Method: SET assays were performed as follows. In a 96-well polypropylene plate, a constant concentration of ANGPTL4 antibody was mixed with different concentrations of non-biotinylated human, cyno, mouse, or rat full-length ANPGLT4 protein, or human ANGPTL4 N-terminal domain protein (5-fold serial dilution) and incubated at 22° C. for 14 hours with constant shaking (300 rpm). On a pre-blocked 384-well streptavidin-coated Meso Scale Discovery (MSD) plate biotinylated ANGPTL4 (full-length human, cyno, mouse, or rat ANGPTL4, or human ANGPTL4 N-terminal domain) protein (1 nM, 15 μL per well) was immobilized and washed thereafter.
The equilibrium binding reactions (15 μL per well) were applied to the MSD plate with immobilized ANGPTL4 and incubated for 20 min at 22° C. The unbound material was removed by washing the plate 3 times with wash buffer, and the captured antibody was detected by adding Sulfo-tagged goat anti-human IgG (Meso Scale Discovery). After washing MSD read buffer T was added and the plate was developed using a Sector Imager 6000 (Meso Scale Discovery). The data were transferred to Microsoft Excel for analysis and plotted using GraphPad Prism v6. The KD values were determined by fitting the data to the following equation: […]
where Bₘₐₓ is the signal when no ANGPTL4 protein is present in solution, CAb is the constant concentration of ANGPTL4 antibody in solution, CAg is the concentration of ANGPTL4 in solution, and KD is the equilibrium dissociation constant.

[2] = biological target: T1, Human ANGPTL4(26-406)-FLAG-His6-Avi; assay: ForteBio Octet, biotinylated antigen on streptavidin sensor, antibody in solution
Method: Dissociation constants (KD) were determined for selected antibodies of the invention by using an Octet (ForteBio) kinetic binding assay. ForteBio 10× Kinetics Buffer (ForteBio, catalog number 18-5032) was diluted 10-fold with DPBS (Life Technologies, catalog number 14190-136), and the resulting solution was added (0.2 ml per well) to a 96-well plate (Greiner, catalog number 65520). Streptavidin sensors (ForteBio, catalog number 18-5020) were immersed in the solution and equilibrated for at least 10 min at room temperature. In a second 96-well plate (Greiner, catalog number 65520), sensors were washed in 1× Kinetics buffer, and then immersed in 200 ul of 25 nM biotinylated human ANGPTL4 or a biotinylated reference protein (for background substraction) for 1000 sec […] at room temperature. The sensors were then washed in 1× Kinetics buffer for 120 sec, and immersed in 200 ul of ANGPTL4 antibody diluted in 1× Kinetics buffer at various concentrations (serial 2-fold dilutions ranging from 25 nM to 0.4 nM), and antibody association was monitored for 480 seconds. The sensors were then transferred to a well containing 200 ul 1× Kinetics buffer, and antibody dissociation was monitored for 1200 seconds. Background-corrected association and dissociation curves were globally fitted by Octet Software (ForteBio) to generate association (kₒₙ) and dissociation (koff) rate constants, which in turn were used to calculate equilibrium dissociation constants (KD).

[3] = biological target: T2, Human ANGPTL3(17-460)-FLAG-His-Avi (human, UniProt Q9Y5C1 17-460, biotin on the C-terminal Avi tag); assay: direct ELISA on streptavidin-coated MSD plate: biotinylated antigen immobilised at 1 nM, antibody at 1 nM, detection with Sulfo-tagged goat anti-human IgG
T2 construct: also called full length human ANGPTL3; hANGPTL3
T2 sequence: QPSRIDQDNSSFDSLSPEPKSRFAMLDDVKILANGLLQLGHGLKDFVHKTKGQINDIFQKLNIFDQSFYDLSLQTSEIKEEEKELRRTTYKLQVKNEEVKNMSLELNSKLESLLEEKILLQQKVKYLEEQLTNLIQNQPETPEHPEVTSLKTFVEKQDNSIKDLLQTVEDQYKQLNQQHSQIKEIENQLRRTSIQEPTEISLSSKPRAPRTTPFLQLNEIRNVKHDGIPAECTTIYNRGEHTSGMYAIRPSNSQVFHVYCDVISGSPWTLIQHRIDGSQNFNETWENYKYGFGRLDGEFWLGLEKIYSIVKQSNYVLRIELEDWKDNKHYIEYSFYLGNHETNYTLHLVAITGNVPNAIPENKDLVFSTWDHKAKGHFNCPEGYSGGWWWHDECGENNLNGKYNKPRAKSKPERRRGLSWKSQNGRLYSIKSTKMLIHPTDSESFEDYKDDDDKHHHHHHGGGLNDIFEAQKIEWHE
Method: Direct ELISA assays were conducted to characterize antibody binding specificity of selected antibodies of the invention. The assay was performed as follows. A 384-well streptavidin-coated Meso Scale Discovery (MSD) plate was blocked by incubating the plate with 50 μL Blocking Buffer (PBS, pH 7.4, 5% w/v bovine serum albumin) per well at 22° C. for 1 hour with constant shaking (600 rpm). The blocked MSD plate was then washed 3 times with Wash Buffer (PBS, pH 7.4 and 0.05% v/v Tween-20) using a plate washer (BioTek). Following washing, biotinylated human ANGPTL4 proteins diluted in Assay Buffer (PBS, pH 7.4 without CaCl₂ or MgCl₂, 0.5% w/v fatty acid-free bovine serum albumin and 0.02% v/v Tween-20) were immobilized on the surface by incubation at 1 nM concentration (15 μL per well) at 22° C. for one hour: full length human ANGPTL4 (hANGPTL4), human ANGPTL4 coiled-coil domain (hANGPTL4-CCD) and full length human ANGPTL3 (hANGPTL3). The plate was then washed 3 times as described earlier. Antibody diluted to 1 nM concentration in Assay Buffer was then applied to the MSD plate […], and the plate was incubated for 1 hour at 22° C. with constant shaking (600 rpm). Bound antibodies were detected by adding 15 μL per well of a 1:500 dilution of Sulfo-tagged goat anti-human IgG. The plate was then incubated for one hour with constant shaking (600 rpm). The plate was washed 3 times, and then 15 μL/well of 1×MSD read buffer T was added and the plate was developed using a Sector Imager 6000 (Meso Scale Discovery). The data were transferred to Microsoft Excel for analysis and plotted using GraphPad Prism v6. […] An ANGPTL3-specific reference antibody was used as a positive control for the ANGPTL3 binding assay (FIG. 2).

[4] = biological target: T1, Human ANGPTL4(26-406)-FLAG-His6-Avi; assay: cell-based or functional assay
[5] = biological target: T1, Human ANGPTL4(26-406)-FLAG-His6-Avi; assay: cell-based or functional assay; remark: listed apart in the source

Kd [1]: 0.017 nM
Kd [2]: 0.134 nM
koff [2]: 5.6e-05 s⁻¹
kon [2]: 420000 M⁻¹ s⁻¹
binding result [3]: no binding (tested: 1 nM)
Reversal of human ANGPTL4 inhibition of human LPL EC50 [4]: 1 nM
EC50 (read off the curve) [1(D] [5]: ~0.5 nM
B1: MOR021800 (antibody, human IgG1, lambda, V domains shown)
VH: QVQLVQSGAEVKKPGESLKISCKGSGYSFSTYWISWVRQMPGKGLEWMGIIDPSNSDTRYSPSFQGQVTISADKSISTAYLQWSSLKASDTAMYYCARVYGYVYMDVWGQGTLVTVSS
VL: DIELTQPPSVSVSPGQTASITCSGDNLGKKYAYWYQQKPGQAPVLVIYDKTKRPSGIPERFSGSNSGNTATLTISGTQAEDEADYYCASYDWYSSSYVFGGGTKLTVLG
notes: human IgG1
